Consider four molecules from patent publication US20040142379A1 (CARLSBERG RESEARCH LABORATORY, published 2004).

Positions of bridges follow the written chain, without caps; N, C: chain ends. Non-standard residues stand in square brackets, D forms with d. Primed or numbered codes have the meaning given here. No end group written: not given here. T(Sa)″ = not defined here

Common to all, as to assay: on-bead capture from E. coli membrane protein extract; tryptic digest, MALDI peptide mass fingerprint
In assay [1] the target is T1, Mannose-1-phosphate guanyl transferase (Escherichia coli, UniProt P24174 1-478).
T1 sequence (looked up): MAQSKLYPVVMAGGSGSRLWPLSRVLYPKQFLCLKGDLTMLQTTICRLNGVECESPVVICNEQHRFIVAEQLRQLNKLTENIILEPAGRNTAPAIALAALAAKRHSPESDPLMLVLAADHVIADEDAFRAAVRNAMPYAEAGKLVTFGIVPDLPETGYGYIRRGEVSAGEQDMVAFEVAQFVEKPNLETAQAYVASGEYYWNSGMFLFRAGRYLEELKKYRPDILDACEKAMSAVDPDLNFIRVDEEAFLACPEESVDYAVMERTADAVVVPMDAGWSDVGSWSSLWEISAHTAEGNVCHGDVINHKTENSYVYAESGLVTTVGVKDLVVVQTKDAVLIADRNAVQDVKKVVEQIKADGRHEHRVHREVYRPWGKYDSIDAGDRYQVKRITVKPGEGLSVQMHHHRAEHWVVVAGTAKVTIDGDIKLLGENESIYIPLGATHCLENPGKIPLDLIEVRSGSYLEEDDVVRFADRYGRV

The target in assay [2] is isopropyl malate dehydrogenase (Escherichia coli, UniProt P30125 2-363).
In assay [3] the target is UDP-glucose dehydrogenase (Escherichia coli, UniProt P76373 1-388).
In another assay the target is T2, Biotin synthetase (Escherichia coli, UniProt P12996 1-346).
T2 sequence (looked up): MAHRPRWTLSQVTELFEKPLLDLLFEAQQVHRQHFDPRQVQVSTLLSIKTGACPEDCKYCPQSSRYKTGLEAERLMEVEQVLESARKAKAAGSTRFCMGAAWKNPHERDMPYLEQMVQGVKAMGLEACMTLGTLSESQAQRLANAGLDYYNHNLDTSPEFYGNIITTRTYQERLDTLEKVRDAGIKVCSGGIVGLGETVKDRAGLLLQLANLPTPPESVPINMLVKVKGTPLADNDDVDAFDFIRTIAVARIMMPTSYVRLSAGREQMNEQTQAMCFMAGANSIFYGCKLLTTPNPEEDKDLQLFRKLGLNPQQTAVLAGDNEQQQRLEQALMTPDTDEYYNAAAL

Assay [4] concerns the target T3, glutamine tRNA synthetase (Escherichia coli, UniProt P00962 2-554).
T3 sequence (looked up): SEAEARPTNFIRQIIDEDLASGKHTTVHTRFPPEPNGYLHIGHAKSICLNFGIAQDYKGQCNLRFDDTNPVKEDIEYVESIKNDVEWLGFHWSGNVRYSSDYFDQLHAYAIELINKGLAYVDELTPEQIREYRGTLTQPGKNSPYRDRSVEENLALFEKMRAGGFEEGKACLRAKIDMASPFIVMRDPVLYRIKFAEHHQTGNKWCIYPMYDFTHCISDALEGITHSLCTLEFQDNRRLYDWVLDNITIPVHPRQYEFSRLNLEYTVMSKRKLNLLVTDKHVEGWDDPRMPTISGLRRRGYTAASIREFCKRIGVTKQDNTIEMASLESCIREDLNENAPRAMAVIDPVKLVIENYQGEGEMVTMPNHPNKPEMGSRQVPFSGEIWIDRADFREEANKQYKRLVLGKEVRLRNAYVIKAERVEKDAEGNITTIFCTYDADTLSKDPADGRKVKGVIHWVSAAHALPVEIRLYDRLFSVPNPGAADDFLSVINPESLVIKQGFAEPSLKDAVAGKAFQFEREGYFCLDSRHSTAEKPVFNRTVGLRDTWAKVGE

The next assay concerns the target T4, citrate synthetase (Escherichia coli, UniProt P0ABH7 1-427).
T4 sequence (looked up): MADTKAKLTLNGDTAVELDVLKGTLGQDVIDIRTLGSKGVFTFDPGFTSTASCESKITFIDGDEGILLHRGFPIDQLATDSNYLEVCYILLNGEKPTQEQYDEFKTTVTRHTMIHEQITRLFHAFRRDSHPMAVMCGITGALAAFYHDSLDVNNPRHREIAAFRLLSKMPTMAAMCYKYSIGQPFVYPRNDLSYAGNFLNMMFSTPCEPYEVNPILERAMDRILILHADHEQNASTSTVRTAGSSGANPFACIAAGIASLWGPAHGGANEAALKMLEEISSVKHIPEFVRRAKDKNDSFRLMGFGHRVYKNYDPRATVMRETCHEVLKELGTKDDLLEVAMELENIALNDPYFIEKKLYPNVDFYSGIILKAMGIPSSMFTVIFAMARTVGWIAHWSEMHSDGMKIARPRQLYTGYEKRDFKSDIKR

Assay [5] addresses T5, NAD-dependent 7-alpha-hydroxysteriod dehydrogenase (Escherichia coli, UniProt P0AET8 1-255).
T5 sequence (looked up): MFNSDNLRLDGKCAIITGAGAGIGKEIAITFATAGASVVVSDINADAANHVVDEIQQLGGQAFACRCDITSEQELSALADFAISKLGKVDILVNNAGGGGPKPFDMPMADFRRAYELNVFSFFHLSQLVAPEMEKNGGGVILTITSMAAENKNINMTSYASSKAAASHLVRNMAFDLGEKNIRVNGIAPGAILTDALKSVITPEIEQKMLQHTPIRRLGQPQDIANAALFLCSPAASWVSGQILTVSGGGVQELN

isopropyl malate dehydrogenase, sequence (P30125 2-363 limits assumed): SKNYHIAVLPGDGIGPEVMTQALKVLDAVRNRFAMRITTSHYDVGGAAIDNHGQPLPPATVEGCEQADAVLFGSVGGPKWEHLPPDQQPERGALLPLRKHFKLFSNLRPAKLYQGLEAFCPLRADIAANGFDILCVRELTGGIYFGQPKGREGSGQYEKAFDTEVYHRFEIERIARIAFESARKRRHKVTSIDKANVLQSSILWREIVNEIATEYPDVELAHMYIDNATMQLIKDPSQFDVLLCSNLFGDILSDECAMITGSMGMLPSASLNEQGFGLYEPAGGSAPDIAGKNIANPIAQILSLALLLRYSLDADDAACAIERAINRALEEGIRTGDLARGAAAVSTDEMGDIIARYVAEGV

B1: T(Sa)-H-W-H-I (peptide)
peptide: [T(Sa)″]HWHI
modifications: lactam N-1; reading uncertain; also: printed as T(Sa)-H-W-H-I
notes: Library 2 ligand, resynthesised on PEGA4000 resin bead
Regarding B1, the binding result in assay [1] and in assay [2] was “binds” each time.

B2: T(Sa)-Y-S-M-P (peptide)
peptide: [T(Sa)″]YSMP
modifications: lactam N-1; reading uncertain; also: printed as T(Sa)-Y-S-M-P
notes: as for B1
Consider B2, for which the binding result (in assay [3]; with Biotin synthetase) was “binds” each time.

B3: T(Sa)-G-V-F-L (peptide)
peptide: [T(Sa)″]GVFL
modifications: lactam N-1; reading uncertain; also: printed as T(Sa)-G-V-F-L
notes: as for B1
As for B3, in assay [4], the binding result is recorded as “binds”.

B4: T(Sa)-L-S-W-W (peptide)
peptide: [T(Sa)″]LSWW
modifications: lactam N-1; reading uncertain; also: printed as T(Sa)-L-S-W-W
notes: as for B1
With B4, the binding result (with citrate synthetase; in assay [5]) was “binds” each time.
